Molecular target: the molecule itself
Assay: crystal structure

B1: Mycobacterium tuberculosis methyltransferase Rv2067c (tagless recombinant protein used for crystallization) (enzyme)
chain: TDDHPRADIVSRQYHRWLYPHPIADLEAWTTANWEWFDPVHSHRILWPDREYRPDLDILIAGCGTNQAAIFAFTNRAAKVVAIDISRPALDHQQYLKDKHGLANLELHLLPIEELATLGRDFDLVVSTGVLHHLADPRAGMKELAHCLRRDGVVAAMLYGKYGRIGVELLGSVFRDLGLGQDDASIKLAKEAISLLPTYHPLRNYLTKARDLLSDSALVDTFLHGRQRSYTVEECVDLVTSAGLVFQGWFHKAPYYPHDFFVPNSEFYAAVNTLPEVKAWSVMERLETLNATHLFMACRRDRPKEQYTIDFSTVAALDYVPLMRTRCGVSGTDMFWPGWRMAPSPAQLAFLQQVDGRRTIREIAGCVARTGEPSGGSLADLEEFGRKLFQSLWRLDFVAVALPASG
notes: also called MTase
stoichiometry N: 2

Source: paper PMC10739865, “The Mycobacterium tuberculosis methyltransferase Rv2067c manipulates host epigenetic programming to promote its own survival” (Nature Communications, 2023)
